# Test results published in patent US20230174608A1 (published 2023).
# Changes are numbered by the printed parent chain. Where no end group is shown, it is not given here. [ ]: non-standard residue; d: D form. Aib = CC(C)(N)C(=O)O
# B1: dgc003 (peptide)
# peptide: HXQGTFTSDYSKYLDERAAKEFIAWLEAGG
# HELM: PEPTIDE1{H.[Aib].Q.G.T.F.T.S.D.Y.S.K.Y.L.D.E.R.A.A.K.E.F.I.A.W.L.E.A.G.G.[am]}|PEPTIDE2{[CCCCCCCCCCCCCCCC(=O)[*:2]].[gGlu]}$PEPTIDE1,PEPTIDE2,20:R3-2:R2$$$V2.0; N-terminus assumed
# SMILES: CCCCCCCCCCCCCCCC(=O)N[C@@H](CCC(=O)NCCCC[C@H](NC(=O)[C@H](C)NC(=O)[C@H](C)NC(=O)[C@H](CCCNC(=N)N)NC(=O)[C@H](CCC(=O)O)NC(=O)[C@H](CC(=O)O)NC(=O)[C@H](CC(C)C)NC(=O)[C@H](Cc1ccc(O)cc1)NC(=O)[C@H](CCCCN)NC(=O)[C@H](CO)NC(=O)[C@H](Cc1ccc(O)cc1)NC(=O)[C@H](CC(=O)O)NC(=O)[C@H](CO)NC(=O)[C@@H](NC(=O)[C@H](Cc1ccccc1)NC(=O)[C@@H](NC(=O)CNC(=O)[C@H](CCC(N)=O)NC(=O)C(C)(C)NC(=O)[C@@H](N)Cc1c[nH]cn1)[C@@H](C)O)[C@@H](C)O)C(=O)N[C@@H](CCC(=O)O)C(=O)N[C@@H](Cc1ccccc1)C(=O)N[C@H](C(=O)N[C@@H](C)C(=O)N[C@@H](Cc1c[nH]c2ccccc12)C(=O)N[C@@H](CC(C)C)C(=O)N[C@@H](CCC(=O)O)C(=O)N[C@@H](C)C(=O)NCC(=O)NCC(N)=O)[C@@H](C)CC)C(=O)O
# B2: dgc020 (peptide)
# peptide: B1 peptide with D15E, A28G, G29E
# HELM: PEPTIDE1{H.[Aib].Q.G.T.F.T.S.D.Y.S.K.Y.L.E.E.R.A.A.K.E.F.I.A.W.L.E.G.E.G.[am]}|PEPTIDE2{[CCCCCCCCCCCCCCCC(=O)[*:2]].[gGlu].[gGlu]}$PEPTIDE1,PEPTIDE2,20:R3-3:R2$$$V2.0; N-terminus assumed
# SMILES: CCCCCCCCCCCCCCCC(=O)N[C@@H](CCC(=O)N[C@@H](CCC(=O)NCCCC[C@H](NC(=O)[C@H](C)NC(=O)[C@H](C)NC(=O)[C@H](CCCNC(=N)N)NC(=O)[C@H](CCC(=O)O)NC(=O)[C@H](CCC(=O)O)NC(=O)[C@H](CC(C)C)NC(=O)[C@H](Cc1ccc(O)cc1)NC(=O)[C@H](CCCCN)NC(=O)[C@H](CO)NC(=O)[C@H](Cc1ccc(O)cc1)NC(=O)[C@H](CC(=O)O)NC(=O)[C@H](CO)NC(=O)[C@@H](NC(=O)[C@H](Cc1ccccc1)NC(=O)[C@@H](NC(=O)CNC(=O)[C@H](CCC(N)=O)NC(=O)C(C)(C)NC(=O)[C@@H](N)Cc1c[nH]cn1)[C@@H](C)O)[C@@H](C)O)C(=O)N[C@@H](CCC(=O)O)C(=O)N[C@@H](Cc1ccccc1)C(=O)N[C@H](C(=O)N[C@@H](C)C(=O)N[C@@H](Cc1c[nH]c2ccccc12)C(=O)N[C@@H](CC(C)C)C(=O)N[C@@H](CCC(=O)O)C(=O)NCC(=O)N[C@@H](CCC(=O)O)C(=O)NCC(N)=O)[C@@H](C)CC)C(=O)O)C(=O)O
# B3: dgc021 (peptide)
# peptide: H[Aib]QGTFTSDYSKYLEERAAKEFIAWLEGEG-NH2
# modifications: not fully specified (residue 20); printed as HAibQGTFTSDYSKYLEERAAK*EFIAWLEGEG
# B4: dgc001 (peptide)
# peptide: HSQGTFTSDYSKYLDERAAKEFIAWLEAGG-NH2
# modifications: not fully specified (residue 20); printed as HSQGTFTSDYSKYLDERAAK*EFIAWLEAGG
# Biological target: GLP-1 receptor (GLP-1R), stably expressed on HEK293 cells
# Test: cell-based or functional assay
row,"GLP-1R (nM EC50), receptor-mediated cAMP production in HEK293 cells",Binder
1,0.291 nM,B1
2,1.51 nM,B2
3,0.382 nM,B3
4,1.13 nM,B4

# Biological target: Glucagon receptor (GCGR), stably expressed on HEK293 cells
# Test: cell-based or functional assay
row,"GCGR (nM EC50), receptor-mediated cAMP production in HEK293 cells",Binder
1,1.04 nM,B1
2,0.883 nM,B2
3,3.93 nM,B3
4,0.806 nM,B4
